Experimental data from US20260242478A1 (published 2026).
Where no end group is shown, it is not given here.

B1: Phage-2089 (peptide)
peptide: VEKWCIPTWMCQAM
modifications: cysteine pairing not given here; also: fused to phage pIII, pIII sequence and linker not given here
notes: Clonal phage of the Peptide-180 library
B2: Phage-2090 (peptide)
peptide: IVKWCVPEWMCEGT
modifications: cysteine pairing not given here; also: fused to phage pIII, pIII sequence and linker not given here
notes: as for B1
B3: Phage-2087 (peptide)
peptide: FEKWCIPSWMCSGP
modifications: cysteine pairing not given here; also: fused to phage pIII, pIII sequence and linker not given here
notes: as for B1
B4: Phage-2088 (peptide)
peptide: VEKWCIPQWMCAEM
modifications: cysteine pairing not given here; also: fused to phage pIII, pIII sequence and linker not given here
notes: as for B1
B5: Phage-2082 (peptide-180 library clone, SEQ ID NO: 2398) (peptide)
peptide: PEKLCIPDWMCHWD
notes: Tested as clonal phage supernatant; not shown: pIII filament protein of the bacteriophage to which the peptide is fused for display
B6: Phage-2075 (peptide-180 library clone, SEQ ID NO: 2391) (peptide)
peptide: ADKWCTPTWMCQWL
notes: as for B5
B7: Phage-2079 (peptide-180 library clone, SEQ ID NO: 2395) (peptide)
peptide: DWRLCIPEWMCERL
notes: as for B5
B8: Phage-2085 (peptide-180 library clone, SEQ ID NO: 2401) (peptide)
peptide: ESKWCTPPWMCMTD
notes: as for B5
B9: Phage-2086 (peptide-180 library clone, SEQ ID NO: 2402) (peptide)
peptide: VHQMCQPWWMCWET
notes: as for B5
B10: Phage-2083 (peptide-180 library clone, SEQ ID NO: 2399) (peptide)
peptide: WSNWCTPRWVCKTI
notes: as for B5
B11: Phage-2084 (peptide-180 library clone, SEQ ID NO: 2400) (peptide)
peptide: SEHWCVPSWMCYGF
notes: as for B5
B12: Phage-2081 (peptide-180 library clone, SEQ ID NO: 2397) (peptide)
peptide: QVNWCIPPWMCAGL
modifications: cysteine pairing not given here; also: fused to phage pIII, pIII sequence and linker not given here
notes: as for B5
B13: Phage-2077 (peptide-180 library clone, SEQ ID NO: 2393) (peptide)
peptide: AEKLCIPPWMCMLS
notes: as for B5
B14: Phage-2080 (peptide-180 library clone, SEQ ID NO: 2396) (peptide)
peptide: WDNWCTPLWMCQGF
notes: as for B5
B15: Phage-2078 (peptide-180 library clone, SEQ ID NO: 2394) (peptide)
peptide: IEKWCIPEWMCEYT
notes: as for B5
B16: Phage-2074 (peptide-180 library clone, SEQ ID NO: 2390) (peptide)
peptide: VGNWCKPAWMCEMM
notes: as for B5
B17: Phage-2076 (peptide-180 library clone, SEQ ID NO: 2392) (peptide)
peptide: ADKWCIPEWMCEMN
notes: as for B5

target: T1, Anti-PSMA Fab (SEQ ID NOs: 19, 20); experiment: phage binding ELISA on captured PSMA Fab, wells pre-incubated with PSMA antigen as competitor
T1 construct: In the phage ELISA the Fab was biotinylated and captured on neutravidin coated plates; also called 006 PSMA Fab
Method: (§1) Clonal phage were harvested as crude supernatants and screened via standard ELISAs. […] Prior to the addition of clonal phage. wells were incubated with blocking buffer and PSMA antigen or blocking buffer alone. Without washing or aspirating, clonal phage supernatants were then added to the wells and incubated for a short time. Wells were then washed followed by detection of bound phage using a horse radish conjugated anti-M13 antibody.

| Binder | Anti-PSMA Fab signal in the presence of PSMA |
| --- | --- |
| B1 | 0.0844 |
| B2 | 0.0687 |
| B3 | 0.097 |
| B4 | 0.0696 |

target: T2, Anti-PSMA Fab (SEQ ID NOs: 19, 20); experiment: phage binding ELISA; PSMA Fab on plate pre-incubated with PSMA antigen as competitor, anti-M13 HRP detection;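 further: crude clonal phage supernatants added without washing to wells preincubated with PSMA in blocking buffer, compared with wells receiving blocking buffer only, then bound phage detected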
T2 construct: In the phage ELISA the PSMA Fab was biotinylated and captured on neutravidin coated plates; also called 006 PSMA Fab
Method: as §1

| Binder | Anti-PSMA Fab signal in the presence of PSMA |
| --- | --- |
| B5 | 0.0951 |
| B6 | 0.0745 |
| B7 | 0.0875 |
| B8 | 0.0945 |
| B9 | 0.0749 |
| B10 | 0.0752 |
| B11 | 0.0957 |
| B12 | 0.0898 |
| B13 | 0.101 |
| B14 | 0.0794 |
| B15 | 0.0826 |
| B16 | 0.0681 |
| B17 | 0.0844 |

target: T1, Anti-PSMA Fab (SEQ ID NOs: 19, 20); experiment: phage binding ELISA; biotinylated PSMA Fab captured on neutravidin plate, bound phage detected with anti-M13-HRP
Method: as §1

| Binder | Anti-PSMA Fab (SEQ ID NOs: 19, 20) signal |
| --- | --- |
| B1 | 1.74 |
| B2 | 1.74 |
| B3 | 1.75 |
| B4 | 1.74 |

target: T2, Anti-PSMA Fab (SEQ ID NOs: 19, 20); experiment: phage binding ELISA; biotinylated PSMA Fab on neutravidin plate, clonal phage supernatant, anti-M13 HRP detection;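 further: wells were preincubated with blocking buffer either containing PSMA antigen or without it before crude phage supernatant was added, briefly incubated, then washed prior to detection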
Method: as §1

| Binder | Anti-PSMA Fab (SEQ ID NOs: 19, 20) signal |
| --- | --- |
| B5 | 1.75 |
| B6 | 1.76 |
| B7 | 1.75 |
| B8 | 1.75 |
| B9 | 1.75 |
| B10 | 1.75 |
| B11 | 1.75 |
| B12 | 1.75 |
| B13 | 1.76 |
| B14 | 1.75 |
| B15 | 1.75 |
| B16 | 1.76 |
| B17 | 1.76 |
